Results reported in PMC5703852, “Functional interplay between the transcription factors USF1 and PDX-1 and protein kinase CK2 in pancreatic β-cells” (Scientific Reports, 2017).

Target: T1, GST-USF1 T100D (UniProt P22415 1-310, T100D)
T1 construct: USF1 with the CK2 phosphorylation site threonine 100 changed to the phospho-mimicking aspartic acid, as GST fusion; also called phospho-mimicking USF1_(T100D) mutant; source: bacterial expression, purified GST fusion protein
Assay: pull-down; 10 µg purified GST fusion protein on GSH-sepharose in PBS-T (PBS pH 7.4, 1% Tween 20), 2 h at 4 °C with 7.5 µl in vitro translated [35S]methionine-labelled partner; SDS-PAGE, Coomassie, autoradiography
Conditions: one partner purified

T1 sequence (P22415 whole entry T100D, the tested form may be a part): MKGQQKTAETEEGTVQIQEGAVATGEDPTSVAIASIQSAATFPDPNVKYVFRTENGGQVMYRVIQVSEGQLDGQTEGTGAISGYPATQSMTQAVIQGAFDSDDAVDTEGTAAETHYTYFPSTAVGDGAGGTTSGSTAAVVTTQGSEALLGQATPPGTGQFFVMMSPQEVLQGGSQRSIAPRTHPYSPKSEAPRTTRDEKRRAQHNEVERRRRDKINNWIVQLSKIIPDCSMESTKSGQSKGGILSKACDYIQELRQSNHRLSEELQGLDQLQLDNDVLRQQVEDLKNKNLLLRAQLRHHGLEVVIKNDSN

B1: in vitro translated PDX-1 (pRSET-PDX-1) (natural protein)
chain: not shown
modifications: [35S]methionine labelled
notes: mouse PDX-1 cDNA cloned in frame into the BamH1/HindIII sites of pRSETA; also called wild-type PDX-1; source: in vitro translated (from pRSET-PDX-1, Promega)
In the case of B1, the “fold binding against wild-type or alanine mutant USF1” value is reported as 3.5 fold.
